Assay results: the supplement of paper PMC5998384

Assays:
HeLa Kyoto [1] = experiment: melting temperature (median over replicates), in situ; higher = more thermally stable
HeLa Kyoto [2] = experiment: solubility in G1/S (NP-40 vs SDS abundance) (log2 ratio); higher = more soluble; settings: cell cycle stage: G1/S
HeLa Kyoto [3] = experiment: thermal stability score vs G1/S (z-score of summed log2 fold changes over temperatures); higher = more thermally stable than in G1/S
HeLa Kyoto [4] = experiment: solubility change mitosis vs G1/S (difference of NP-40 vs SDS log2 ratios) (log2 ratio difference); higher = more soluble in mitosis
[5] = cell cycle stage: early G1 (4.5 h after nocodazole release)
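Wherever melting temperature (median over replicates), in situ is given: HeLa Kyoto cells synchronized by double thymidine or nocodazole block, proteins quantified by TMT10plex mass spectrometry, three independent biological replicates.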
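Wherever solubility change mitosis vs G1/S (difference of NP-40 vs SDS log2 ratios) is given: synchronized HeLa Kyoto cells (double thymidine block for G1/S, nocodazole release for mitosis), protein amounts in NP-40 versus SDS lysates quantified by mass spectrometry, three biological replicates.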
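Wherever solubility in G1/S (NP-40 vs SDS abundance) is given: HeLa Kyoto cells arrested at G1/S by double thymidine block, proteins quantified by TMT10plex mass spectrometry in mild NP-40 versus SDS extracts, three biological replicates.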
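Wherever thermal stability score vs G1/S (z-score of summed log2 fold changes over temperatures) is given: synchronized HeLa Kyoto cells, proteins quantified by TMT10plex mass spectrometry, three biological replicates, mitosis taken 0.5 h after nocodazole release, G1/S directly after double thymidine block.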

Row | Sequence | melting temperature (HeLa Kyoto [1]; cell cycle stage: G1/S) [°C] | melting temperature (HeLa Kyoto [1]; cell cycle stage: mitosis) [°C] | solubility in G1/S (log2) (HeLa Kyoto [2]) | thermal stability score (HeLa Kyoto [3]; [5]) | thermal stability score (HeLa Kyoto [3]; cell cycle stage: mitosis) | solubility change mitosis (log2) (HeLa Kyoto [4])
1 | MAEPVGKRGRWSGGSGAGRGGRGGWGGRGRRPRAQRSPSRGTLDVVSVDLVTDSDEEILEVATARGAADEVEVEPPEPPGPVASRDNSNSDSEGEDRRPAGPPREPVRRRRRLVLDPGEAPLVPVYSGKVKSSLRLIPDDLSLLKLYPPGDEEEAELADSSGLYHEGSPSPGSPWKTKLRTKDKEEKKKTEFLDLDNSPLSPPSPRTKSRTHTRALKKLSEVNKRLQDLRSCLSPKPPQGQEQQGQEDEVVLVEGPTLPETPRLFPLKIRCRADLVRLPLRMSEPLQSVVDHMATHLGVSPSRILLLFGETELSPTATPRTLKLGVADIIDCVVLTSSPEATETSQQLQLRVQGKEKHQTLEVSLSRDSPLKTLMSHYEEAMGLSGRKLSFFFDGTKLSGRELPADLGMESGDLIEVWG [NFATC2IP] | 48.7 | 51.5 | 0.318 | 2.45 | 4.3 | -0.0384
2 | MAERKPNGGSGGASTSSSGTNLLFSSSATEFSFNVPFIPVTQASASPASLLLPGEDSTDVGEEDSFLGQTSIHTSAPQTFSYFSQVSSSSDPFGNIGQSPLTTAATSVGQSGFPKPLTALPFTTGSQDVSNAFSPSISKAQPGAPPSSLMGINSYLPSQPSSLPPSYFGNQPQGIPQPGYNPYRHTPGSSRANPYIAPPQLQQCQTPGPPAHPPPSGPPVQMYQMPPGSLPPVPSSVQSPAQQQVPARPGAPSVQVPSPFLLQNQYEPVQPHWFYCKEVEYKQLWMPFSVFDSLNLEEIYNSVQPDPESVVLGTDGGRYDVYLYDRIRKAAYWEEEPAEVRRCTWFYKGDTDSRFIPYTEEFSEKLEAEYKKAVTTNQWHRRLEFPSGETIVMHNPKVIVQFQPSSVPDEWGTTQDGQTRPRVVKRGIDDNLDEIPDGEMPQVDHLVFVVHGIGPVCDLRFRSIIECVDDFRVVSLKLLRTHFKKSLDDGKVSRVEFLPVHWHSSLGGDATGVDRNIKKITLPSIGRFRHFTNETLLDILFYNSPTYCQTIVEKVGMEINHLHALFMSRNPDFKGGVSVAGHSLGSLILFDILSNQKDLNLSKCPGPLAVANGVVKQLHFQEKQMPEEPKLTLDESYDLVVENKEVLTLQETLEALSLSEYFSTFEKEKIDMESLLMCTVDDLKEMGIPLGPRKKIANFVEHKAAKLKKAASEKKAVAATSTKGQEQSAQKTKDMASLPSESNEPKRKLPVGACVSSVCVNYESFEVGAGQVSVAYNSLDFEPEIFFALGSPIAMFLTIRGVDRIDENYSLPTCKGFFNIYHPLDPVAYRLEPMIVPDLDLKAVLIPHHKGRKRLHLELKESLSRMGSDLKQGFISSLKSAWQTLNEFARAHTSSTQLQEELEKVANQIKEEEEKQVVEAEKVVESPDFSKDEDYLGKVGMLNGGRRIDYVLQEKPIESFNEYLFALQSHLCYWESEDTALLLLKEIYRTMNISPEQPQH [SEC23IP] | 50.5 | 50.3 | 0.171 | -1.73 | -1.12 | -0.197
3 | MAETLSGLGDSGAAGAAALSSASSETGTRRLSDLRVIDLRAELRKRNVDSSGNKSVLMERLKKAIEDEGGNPDEIEITSEGNKKTSKRSSKGRKPEEEGVEDNGLEENSGDGQEDVETSLENLQDIDIMDISVLDEAEIDNGSVADCVEDDDADNLQESLSDSRELVEGEMKELPEQLQEHAIEDKETINNLDTSSSDFTILQEIEEPSLEPENEKILDILGETCKSEPVKEESSELEQPFAQDTSSVGPDRKLAEEEDLFDSAHPEEGDLDLASESTAHAQSSKADSLLAVVKREPAEQPGDGERTDCEPVGLEPAVEQSSAASELAEASSEELAEAPTEAPSPEARDSKEDGRKFDFDACNEVPPAPKESSTSEGADQKMSSPEDDSDTKRLSKEEKGRSSCGRNFWVSGLSSTTRATDLKNLFSKYGKVVGAKVVTNARSPGARCYGFVTMSTAEEATKCINHLHKTELHGKMISVEKAKNEPVGKKTSDKRDSDGKKEKSSNSDRSTNLKRDDKCDRKDDAKKGDDGSGEKSKDQDDQKPGPSERSRATKSGSRGTERTVVMDKSKGVPVISVKTSGSKERASKSQDRKSASREKRSVVSFDKVKEPRKSRDSESHSRVRERSEREQRMQAQWEREERERLEIARERLAFQRQRLERERMERERLERERMHVEHERRREQERIHREREELRRQQELRYEQERRPAVRRPYDLDRRDDAYWPEAKRAALDERYHSDFNRQDRFHDFDHRDRGRYPDHSVDRREGSRSMMGEREGQHYPERHGGPERHGRDSRDGWGGYGSDKRMSEGRGLPPPPRRDWGDHGRREDDRSWQGTADGGMMDRDHKRWQGGERSMSGHSGPGHMMNRGGMSGRGSFAPGGASRGHPIPHGGMQGGFGGQSRGSRPSDARFTRRY [SAFB] | 50 | 50.5 | -0.896 | 0.453 | 0.986 | 0.541
4 | MAETYDFLFKFLVIGSAGTGKSCLLHQFIENKFKQDSNHTIGVEFGSRVVNVGGKTVKLQIWDTAGQERFRSVTRSYYRGAAGALLVYDITSRETYNSLAAWLTDARTLASPNIVVILCGNKKDLDPEREVTFLEASRFAQENELMFLETSALTGENVEEAFLKCARTILNKIDSGELDPERMGSGIQYGDASLRQLRQPRSAQAVAPQPCGC [RAB4B] | 56.8 | 57.9 | 0.181 | -1.18 | -2.73 | -0.29
5 | MAFANLRKVLISDSLDPCCRKILQDGGLQVVEKQNLSKEELIAELQDCEGLIVRSATKVTADVINAAEKLQVVGRAGTGVDNVDLEAATRKGILVMNTPNGNSLSAAELTCGMIMCLARQIPQATASMKDGKWERKKFMGTELNGKTLGILGLGRIGREVATRMQSFGMKTIGYDPIISPEVSASFGVQQLPLEEIWPLCDFITVHTPLLPSTTGLLNDNTFAQCKKGVRVVNCARGGIVDEGALLRALQSGQCAGAALDVFTEEPPRDRALVDHENVISCPHLGASTKEAQSRCGEEIAVQFVDMVKGKSLTGVVNAQALTSAFSPHTKPWIGLAEALGTLMRAWAGSPKGTIQVITQGTSLKNAGNCLSPAVIVGLLKEASKQADVNLVNAKLLVKEAGLNVTTSHSPAAPGEQGFGECLLAVALAGAPYQAVGLVQGTTPVLQGLNGAVFRPEVPLRRDLPLLLFRTQTSDPAMLPTMIGLLAEAGVRLLSYQTSLVSDGETWHVMGISSLLPSLEAWKQHVTEAFQFHF [PHGDH] | 55.9 | 55.4 | 0.233 | -2.03 | -1.42 | 0.0444
